In article PMC3823998, “Structural and Functional Characterization of the Redβ Recombinase from Bacteriophage λ” (PLoS ONE, 2013):

Target: T1, Redβ V77A (Bacteriophage λ (Enterobacteria phage λ), UniProt P03698 1-261, V77A)
T1 sequence: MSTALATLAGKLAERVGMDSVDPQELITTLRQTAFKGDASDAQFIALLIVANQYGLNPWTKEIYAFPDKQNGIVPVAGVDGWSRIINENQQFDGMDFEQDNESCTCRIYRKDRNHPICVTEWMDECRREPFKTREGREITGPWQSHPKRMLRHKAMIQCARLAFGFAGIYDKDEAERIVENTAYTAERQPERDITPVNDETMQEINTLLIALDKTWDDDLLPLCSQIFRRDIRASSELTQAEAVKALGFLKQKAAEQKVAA
Assay: EMSA; glutaraldehyde-fixed; ssDNA EMSA: 10 nM DNA, 50 mM potassium phosphate pH 6.0, 5 mM EDTA, 5% glycerol, 0.1 mg/ml BSA, 37°C, 40 min, then 0.1% glutaraldehyde; second-strand EMSA: 5 nM each strand, 20 mM Tris-HCl pH 7.5, 5 mM MgCl2, 1 mM DTT, 0.1 mg/ml BSA, 37°C
Conditions: protein: recombinant; tags: His6 removed; N-terminal GSH left; label: 5' Cy3

With TGCGGATGGCTTAGAGCTTAATTGCTGAATCTGGTGCTGTAGCTCAACAT (ssDNA) [50-minus ssDNA] as the binder, how does the binding signal read?
The binding signal was 11 % of WT binding at 3 µM protein.
